Assay results: article PMC9382030 (Current biology : CB, 2022)

Molecular target: T1, phosphatidylinositol 4-phosphate 5-kinase type-1 gamma (PIP5K1C) (human, UniProt O60331 1-668)
T1 construct: PIP5K1C, human; also called PIPK1 gamma 90; source: Sf9, baculovirus, purified (amylose resin, HRV-3C cleavage, SEC); not shown: His6, N-terminal, cleaved; MBP, N-terminal, cleaved
Assay: pull-down; purified GST, GST-Arf6-T27N or GST-Arf6-Q67L bound to GSH agarose as bait; purified PIP5K1C 400 nM as prey, 1 h at 4 °C; 20 mM HEPES, 250 mM NaCl, 0.5 mM TCEP; SDS-PAGE and Coomassie staining
Conditions: both partners purified

T1 sequence (O60331 whole entry): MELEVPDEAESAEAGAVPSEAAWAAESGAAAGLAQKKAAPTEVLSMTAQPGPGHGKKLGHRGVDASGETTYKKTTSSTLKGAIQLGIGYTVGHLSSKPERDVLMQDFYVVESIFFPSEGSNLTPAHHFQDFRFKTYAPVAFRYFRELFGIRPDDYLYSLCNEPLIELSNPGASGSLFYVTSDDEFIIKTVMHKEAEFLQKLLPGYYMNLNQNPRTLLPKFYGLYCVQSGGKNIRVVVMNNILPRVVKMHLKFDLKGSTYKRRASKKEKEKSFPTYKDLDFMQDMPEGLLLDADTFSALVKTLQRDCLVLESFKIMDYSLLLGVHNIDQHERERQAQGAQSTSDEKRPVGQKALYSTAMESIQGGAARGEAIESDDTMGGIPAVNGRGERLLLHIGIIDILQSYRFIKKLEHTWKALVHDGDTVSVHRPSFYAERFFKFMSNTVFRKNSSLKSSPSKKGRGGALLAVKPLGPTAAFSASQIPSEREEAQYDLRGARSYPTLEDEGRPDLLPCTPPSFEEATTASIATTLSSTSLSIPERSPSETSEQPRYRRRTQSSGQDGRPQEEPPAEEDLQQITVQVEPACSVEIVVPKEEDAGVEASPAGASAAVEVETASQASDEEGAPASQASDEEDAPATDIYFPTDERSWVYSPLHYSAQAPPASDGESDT

B1: GST-Arf6-Q67L (natural protein, human, UniProt P62330 1-175, looked up)
chain: MGKVLSKIFGNKEMRILMLGLDAAGKTTILYKLKLGQSVTTIPTVGFNVETVTYKNVKFNVWDVGGLDKIRPLWRHYYTGTQGLIFVVDCADRDRIDEARQELHRIINDREMRDAIILIFANKQDLPDAMKPHEIQEKLGLTRIRDRNWYVQPSCATSGDGLYEGLTWLTSNYKS
notes: Arf6, human; pGEX-6P-1 Arf6-Q67L; In the phosphoinositide conversion assay an N-terminal 6xHis form (pOCC3) was used instead; also called constitutively active Arf6; source: E. coli BL21, purified (GSH agarose, SEC); not shown: GST, N-terminal, kept
B1: binds.
